Results on three proteins are retold here after patent publication EP4491629A1 (Université de Lorraine, dated 2025).

The labels stand for the following.
B1: Cricetulus griseus galectin-1 (wild-type), produced from the pCarONE vector (other)
chain: ACGLVASNLNLKPGECLKVRGEVAPDAKSFVLNLGKDSNNLCLHFNPRFNAHGDANTIVCNSKDNGAWGTEHREPAFPFQPGSTVEVCITFDQADLTIKLPDGHEFKFPNRLNMEAINYMAADGDFKIKCVAFE
notes: Lectin; recombinant from E. coli; The entries are about self-association (homodimer, printed as 2x16.6 kDa); also called Gal1 wild-type; Gal1; not shown: spacer arm and TEV protease cleavage site encoded by pCarONE
B2: E16K mutant of Cricetulus griseus galectin-1 (other)
chain: ACGLVASNLNLKPGKCLKVRGEVAPDAKSFVLNLGKDSNNLCLHFNPRFNAHGDANTIVCNSKDNGAWGTEHREPAFPFQPGSTVEVCITFDQADLTIKLPDGHEFKFPNRLNMEAINYMAADGDFKIKCVAFE
notes: Recombinant from E. coli; tested for self-association by size exclusion chromatography; also called Gal1 E16K; Gal1 mutant E16K; not shown: spacer arm and TEV protease cleavage site encoded by pCarONEE16K
B3: C131E mutant of Cricetulus griseus galectin-1 (other)
chain: ACGLVASNLNLKPGECLKVRGEVAPDAKSFVLNLGKDSNNLCLHFNPRFNAHGDANTIVCNSKDNGAWGTEHREPAFPFQPGSTVEVCITFDQADLTIKLPDGHEFKFPNRLNMEAINYMAADGDFKIKEVAFEELSSGVDLGTENLYFQS
notes: also called Gal1 C131E; Gal1 mutant C131E

This data set deals with the molecule itself. Nature of the data set: size exclusion chromatography (Superdex 75); self-association. On the technique in general: SEC sorts molecules by how far they enter the pores of the column.
As for B1, the binding result was “binds”.

As for B2, the binding result was “binds”.

With B3, the binding result is on record as “no binding”.
